Experimental data as given in patent publication US20190227063A1.

Legend:
[1] = molecular target: HLA-A*02:01 in complex with WT1 aa126-134 peptide …, on T2 cells expressing the PresentER RMF minigene (human); assay: >
[2] = molecular target: HLA-A*02:01 in complex with PRAME300-309 peptide …, on T2 cells expressing the PresentER ALY minigene (human); assay: flow cytometry histograms, T2 cells expressing PresentER minigenes

| fluorescence units (FU) [1] | fluorescence units (FU) [2] [FU] | Substance |
| --- | --- | --- |
| 1000 > | < 1000 | ESK1 TCR mimic (TCRm) monoclonal antibody |
|  | > 1100 | Pr20 TCR mimic (TCRm) monoclonal antibody |
